Laboratory results from the supplement of paper PMC10567573.
± gives the standard deviation.

Assay: protein stability index of a GFP-peptide fusion (GPS, HEK-293T) (PSI 1-6); higher = more stable
[1] = treatment: DMSO, c terminus: a fixed tail appended
[2] = treatment: MLN4924 1 uM, 8 h, c terminus: a fixed tail appended
[3] = treatment: DMSO, c terminus: native
[4] = treatment: MLN4924 1 uM, 8 h, c terminus: native
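Also: 24-mer peptide tiles fused after GFP, lentivirally expressed, FACS-sorted into six equal bins by GFP/DsRed ratio, decoded by Illumina sequencing, PSI is the read-weighted mean bin number.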

Sequence	protein stability index [1]	protein stability index [2]	protein stability index [3]	protein stability index [4]
LQAALQVLELHHSKLDTTKALNLL [VPS39]	2.23 ± 0.27	2.29 ± 0.21		
ATFVDKKRDLLGALKYWKKAMNMR [FEM1C]	1.95 ± 0.17	2.13 ± 0.46		
RALATSNARAQQRAAAQQRRSFLN [GNAS]	4.02 ± 0.15	4.3 ± 0.13		
ELKKLKNLEGNELQRHADEFLLDL [FUT8]	3.61 ± 0.25	3.59 ± 0.3		
ESLQELRLLLAGAEVQAKLENAEV [HES6]	2.84 ± 0.41	3.15 ± 0.4		
AGGSARRPDTGDDAAGHGFCYCAG [GMCL1]	4.11 ± 0.46	4.13 ± 0.19		
LNEEQTLQEVPTGLDSISHDSANC [ETS2]	5.54 ± 0.073	5.33 ± 0.18		
RLKKEEEDRIVTQNRVFAYLCKRV [CEP70]	2.55 ± 0.31	2.86 ± 0.43		
ERILGPSHPDTSYYIRYRGAVYAD [FEM1A]	2.94 ± 0.2	2.92 ± 0.29		
RDILVEADGAWVVKMFYSFQDKRN [STK38L]	2.07 ± 0.29	2.3 ± 0.4		
KAAQQGKQEENDVVEKLNLFLDLL [SNX8]	2.45 ± 0.076	2.64 ± 0.34		
ITCVSGAIVDLISRQYDKFLTHFI [FBXO33]	2.85 ± 0.53	3.13 ± 0.44		
CRLAKGENGYGFHLNAIRGLPGSF [PDZK1]	2.08 ± 0.69	2.07 ± 0.24		
TLAGLRSRRLKQPKAFCLRDVAP [MIR22HG]			3.11 ± 0.44	2.99 ± 0.21
CHICHKKLYTGPGLAIHCMQVHKE [ZNF207]	3.07 ± 0.27	3.25 ± 0.39		
KVNSKKMLGKYNTPVSYRMAKTLV [ACSBG2]	1.81 ± 0.082	2.05 ± 0.42		
MRGVAEVKEPCSLPMLSVDMENKE [SAMD13]	5.32 ± 0.18	5.53 ± 0.21		
SPDILEEKHCEFKQLALDHFKKTK [ATL3]	4.79 ± 0.23	4.79 ± 0.12		
EDLQDGDVRMGGSFRGAFSNSEKA [NET1]	4.98 ± 0.63	5.252 ± 0.051		
KEYTTRTQAPPSVILGVTNPFFAK [DENND6A]	2.81 ± 0.24	2.738 ± 0.021		
DLVPAALGSLTTAQIARSVWRPW [HES6]			2.09 ± 0.17	2.32 ± 0.43
GMESYQEVTVQRNCCLTLCNFSIP [ZER1]	2.41 ± 0.52	2.1 ± 0.42		
EALYAQDPSTGCYMYYFQYLSKTY [KMT5A]	3.26 ± 0.94	2.42 ± 1.1		

Sequence	protein stability index [1]	protein stability index [2]	protein stability index [3]	protein stability index [4]
EQLIEAISNGDFESYTKMCDPGMT [CAMK2A]	3.92 ± 0.28	3.76 ± 0.44		
TKTEDRELVLRKDCPKIVEPHGKM [ZSCAN9]	4.79 ± 0.083	4.72 ± 0.28		
TFKSFEDRVGTIKSKVVGDRENGS [TPD52L2]	4.65 ± 0.062	4.7 ± 0.29		
GWLPSHEGHLDDGGYTPDLKMSYS [RBMY1A1]	3.62 ± 0.15	3.5 ± 0.36		
NLEKTIFCLQKLISLHPFNPWNWG [C8orf76]	2.53 ± 0.77	2.59 ± 0.5		
CEGKPYNQKSDIWALGCVLYELAS [NEK8]	3.08 ± 0.74	2.88 ± 0.72		
ALSTMGTLICRKLGGVKKSATLRS [TPD52L3]	2.6 ± 0.2	2.67 ± 0.31		
KQLEPLVAPLADGKVAVGQDDLTV [VPS39]	5.14 ± 0.27	5.18 ± 0.21		
IASEWFLIANRSYKVSAASSFFFS [SLC22A15]	3.03 ± 0.19	2.94 ± 0.42		
MYEEEINETRRKHETRLVEVDSGR [LMNB1]	5.04 ± 0.44	5.06 ± 0.099		
TSVFQKKLCTAHMCSTLEHNCAHF [MATN2]	2.47 ± 0.22	2.8 ± 0.34		
RTISCHVQNGTYLQRVLQNCPWPM [EMID1]	2.12 ± 0.22	2.02 ± 0.17		
LSSEMNTSTVNSAREELMESRMRI [LMNB1]	4.48 ± 0.29	4.27 ± 0.17		
RKQILLRGKLKKTEEELRRIQTQK [ZC2HC1C]	3.99 ± 0.24	4.2 ± 0.26		
ERTQLRLESLEDTHIMKGEDDALS [TRIB1]	5.27 ± 0.21	5.34 ± 0.41		
CALGDHGCEHSCVSSEDSFVCQCF [MATN2]	4.25 ± 0.35	4.33 ± 0.3		
RGSKMFKLRQMRVEKFIYENHPDV [MYOZ1]	2.9 ± 0.37	2.52 ± 0.12		
ELVALIPHSDQRLRPQRTKQYVLL [TMEM106C]	2.02 ± 0.33	2.17 ± 0.22		
GKGEARARLKRSQSFGVASASSIK [SMTNL2]	4.6 ± 0.43	4.61 ± 0.38		
ADFGSATFDHEHHTTIVATRHYRP [CLK3]	3.79 ± 0.21	3.92 ± 0.29		
TDSPWIKPARKRRRRSRKKPSGAL [EHMT1]	5.2 ± 0.39	5.22 ± 0.47		
ADSFESSDSLLQSWNSQSSLLDVQ [ETS2]	4.38 ± 0.12	4.56 ± 0.12		
QNECQVLKLLNHPNVIEYYENFLE [NEK8]	2.56 ± 0.12	2.67 ± 0.27		

Sequence	protein stability index [1]	protein stability index [2]	protein stability index [3]	protein stability index [4]
DKVIMKLGKTNAKAVSEMRQKIWN [DYNC2LI1]	2.31 ± 0.12	2.54 ± 0.32		
PKVSDQALVSAHSEWQRKLEAAEA [DMRTC1]	4.54 ± 0.23	4.66 ± 0.29		
CPEGLEELLSAPPPDLGAQRRHGW [SPSB2]	3.8 ± 0.34	3.83 ± 0.25		
KYGGPNHHLPLPDNWKSQVEPETR [CPN1]	4.16 ± 0.3	4.55 ± 0.28		
TLLHFSAARGKERCVRVFLEHGAD [ASB7]	2 ± 0.2	2.21 ± 0.3		
GVYMTDITPQGVAMRAGVLADDHL [PDZK1]	3.54 ± 0.46	3.34 ± 0.21		
LSQPVTYQAFRECTLETTVHASGW [BCL2L13]	2.44 ± 0.46	2.48 ± 0.4		
AQPNYIPTQQDVLRTRVKTTGIVE [GNAI1]	4.19 ± 0.23	4.27 ± 0.36		
KVPREKDEPGKGGFWRIDPQYAER [FOXJ1]	4.12 ± 0.34	4.2 ± 0.21		
EEIDVDGKFIRLKNTSEQDQPMGG [LMNB1]	5.15 ± 0.46	5.47 ± 0.43		
AAKMYHQLKKCETRKLSPGKKRCK [SMG5]	3.92 ± 0.35	4.07 ± 0.37		
LAVYIDKVRSLETENSALQLQVTE [LMNB1]	2.25 ± 0.24	2.52 ± 0.083		
VVQEPPGRASRFLQSISWDPEDFE [TLE6]	4.24 ± 0.33	4.65 ± 0.45		
RMEGSQEVVNMAVIVPKEEGVISV [WDFY2]	3.23 ± 0.36	3.45 ± 0.17		
TVRGLHCMCTVGERLYVIGGNHFR [KLHL13]	2.12 ± 0.26	2.18 ± 0.2		
ERLQAAGTDSAGPKTVPSHVFSEL [ELOA2]	4.06 ± 0.15	4.4 ± 0.14		
FKDEYKSENIKLREENEKLRLENS [CCDC89]	5.25 ± 0.15	5.2 ± 0.15		
GLQPVVFVLFLFAYLVTVRGNLSI [OR3A1]	2.6 ± 0.47	2.19 ± 0.21		
VFIFYYVVEEILELHIHRLRYLSS [PKD2L1]	2.8 ± 0.091	3.07 ± 0.51		
FSALYWFNYELVKSWLNGFRPKDQ [SLC25A39]	2.2 ± 0.39	2.61 ± 0.92		
MQVLGPEDLQSIIYKLEEHEEFFP [CEP70]	2.99 ± 0.53	3.41 ± 0.39		
RPSSILPPRRGVSGDRDENSFSLN [MAP2]	4.67 ± 0.09	4.63 ± 0.12		
FPKNRVLEGVIDRYQQSKAAALKC [TRIM9]	2.78 ± 0.14	3.2 ± 0.19		

Sequence	protein stability index [1]	protein stability index [2]	protein stability index [3]	protein stability index [4]
SFSTGAGGWSNHHFCVILLGFLP [BET1L]			2.99 ± 0.39	2.99 ± 0.53
TLVEAIKEQDGREVDWEYFYGLLF [DFFB]	2.46 ± 0.28	2.69 ± 0.63		
GQIIKDIDSGSPAEEAGLKNNDLV [PDZK1]	5.31 ± 0.33	5.27 ± 0.079		
FGHVMHQICAQVSFFFPPVNLPIS [NLN]	2.71 ± 0.69	3.42 ± 0.31		
EYIDPETKKHIPYREHKSLTGTAR [CSNK1G1]	4.15 ± 0.28	4.08 ± 0.42		
ASEEGSESEGSESSGRSCRNERSI [SMG5]	5.54 ± 0.3	5.45 ± 0.31		
GMPSSLAHRIAAQTLLGTAKMLLH [PYCR3]	2.4 ± 1.2	2.29 ± 0.3		
FLIPMLEMVPEKRASAGECLRHPW [SRPK2]	2.33 ± 0.26	2.2 ± 0.12		
YRHQRLHTGERPYECTVCKKRFTR [ZNF449]	2.75 ± 0.56	3.5 ± 0.53		
LQGCSSIGLRLVLEYLYTANVTLS [KLHL14]	3.07 ± 0.45	2.93 ± 0.67		
LPEPSKRGPPHGWPKLCPCLRSGI [MYCL]	2.04 ± 0.64	2.85 ± 0.054		
PTKADTEKWAEGGGHSRERADEPQ [CHGB]	5.46 ± 0.32	5.36 ± 0.19		
GTKCHGCDFKIDAGDRFLEALGFS [PDLIM7]	2.63 ± 0.22	2.42 ± 0.36		
TLEQILEHLDNLRLNLTNTKQNFF [INTS3]	2.23 ± 0.54	2.31 ± 0.11		
MSLHGASGGHERSRDRRRSSDRSR [BTBD10]	5.05 ± 0.16	5.19 ± 0.22		
NQYLYFLFAPTLIYRDSYPRNPTV [SOAT1]	3.26 ± 0.69	2.57 ± 0.62		
GEVLSYLELAQFHNAHQLAAWCLH [RHOBTB1]	2.7 ± 0.81	2.35 ± 0.25		
DQLNDGQDFAKDLLKTLYNSIKNE [PSD2]	3.56 ± 0.21	3.71 ± 0.32		
DTFKVPKEMFTVGCCVFAFLVGLL [SLC6A17]	2.3 ± 0.51	2.21 ± 0.6		
LDYTADEDGVWYSVAPMNVRRGLA [KLHL12]	2.41 ± 0.81	2.99 ± 0.47		
